Assay results from paper PMC3919270.

Key:
Rab5 = Rab5 (UniProt P51148)
Rab1/Ypt1 = Rab1/Ypt1 (UniProt P01123)
Chain of UniProt P01123 (P01123 whole entry): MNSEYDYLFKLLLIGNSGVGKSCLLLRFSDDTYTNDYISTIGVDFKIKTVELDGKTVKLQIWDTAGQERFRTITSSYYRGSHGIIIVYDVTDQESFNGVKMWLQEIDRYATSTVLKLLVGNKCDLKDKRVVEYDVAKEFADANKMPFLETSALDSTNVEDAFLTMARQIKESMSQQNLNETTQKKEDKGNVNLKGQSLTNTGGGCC

Chain of UniProt P51148 (P51148 whole entry): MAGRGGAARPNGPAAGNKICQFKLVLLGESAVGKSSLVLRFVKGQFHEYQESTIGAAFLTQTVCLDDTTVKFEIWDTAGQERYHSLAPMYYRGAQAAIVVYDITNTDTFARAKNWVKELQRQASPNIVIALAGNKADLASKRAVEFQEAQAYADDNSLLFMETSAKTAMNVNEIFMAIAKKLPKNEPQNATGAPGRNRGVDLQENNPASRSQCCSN

Rabex5 (enzyme)
catalytic efficiency (kcat/Km) of Rabex-mediated nucleotide exchange (release of Mant-GDP from Rab5) (Rab5): 25000 M⁻¹ s⁻¹

TRAPP Bet3 E192A/D193A mutant (from UniProt P36149 1-193) (complex)
GEF activity towards Rab1 (release of Mant-GDP), reduction against wild type TRAPP (Rab1/Ypt1): 4 fold

TRAPPI-complex (from UniProt P36149 1-193)
catalytic efficiency (kcat/Km) of TRAPP-stimulated GDP-release from Rab1/Ypt1 (release of Mant-GDP) (Rab1/Ypt1): 130000 M⁻¹ s⁻¹
